Measurements reported in patent US20250082769A1, “CELLULAR UPTAKE PEPTIDE-THERAPEUTIC PAYLOAD COMPOSITIONS AND METHODS OF USE” (Nighthawk Biosciences, Inc., priority 2022, published 2025).
Read-outs that look alike come from different tables or passages of the source. Non-standard residues stand in square brackets, D forms with d. Residues, ends and D or L forms follow the SMILES beside them. *: point of attachment. Dolaproine = CO[C@@H]([C@@H]1CCCN1)[C@@H](C)C(=O)O; Dil = CC[C@H](C)[C@H](NC)[C@@H](CC(=O)O)OC; X1 = C[C@@H](N*)[C@@H](O)c1ccccc1; NMeV = CN[C@H](C(=O)O)C(C)C

Key:
CHLA06 cells [1] = test: Dose response / cell viability in CHLA06 cells; format: cell-based
Description: (§1) Biological activity of the peptides was determined using various assays. To determine proliferative activity, cells were plated at 5×10^3 cells per well in a 96-well microtiter plate. Samples and controls were added and the plates incubated for 24, 48 and 72 hours at 37° C. Viability was determined by adding WST-1 and reading at […] over 1-4 hours. Alternatively, viability was determined using a kit such as the EZViable calcein AM cell viability assay (BioVision) or the Live/Dead Cell imaging kit (ThermoFisher). Induction of cell events such as apoptosis was determined using reagents such as Cell Event Caspase 3/7 reagent (ThermoFisher).

A431 cells = test: Dose response / cell viability in A431 cells; format: cell-based, human
Description: as §1
(§2) Cells were plated at 5000 cells/well in 100 ul D10 on day 0.100 ul of PDCs were added and titrated 1:1 in D10 (starting concentration=500 nM). WST-1 was added at 72 hours and the plates read over 5 hours at […] in a Promega GloMax.
A pocket biologic (peptide or antibody) having an internalization portion, a linker, and a localization signal was developed to deliver a drug or biological therapeutic into the cell. […] 429-MMAE-1 and 429-NLS-Panobinostat constructs were developed for in vivo studies. G292 cell lines and A431 cell lines were used in the in vivo studies. G292 cells were derived from a primary osteosarcoma of a person. […] A431 cells were established from an epidermoid carcinoma in the skin (epidermis) of a patient. Epidermal growth factor (EGF) stimulation of A431 cells induces rapid tyrosine phosphorylation of intracellular signaling proteins which control cellular processes such as growth, proliferation and apoptosis. […] 429-MMAE affected cell viability in G292 cell lines (FIG. 16A-FIG. 17). 429-MMAE at 50 nm, 125 nm, 250 nm, 500 nm concentrations and OV-MMAE conjugates at 50 nm, 125 nm, 250 nm, 500 nm concentrations were compared to DMSO and MMAE at 50 nm in G292 cells.

microtubules = test: ViaFluor 647 live cell microtubule stain (FIG. 6); format: cell-based; conditions: ViaFluor 647 stain, 60 minutes at 37° C.
Description: Cells were stained with ViaFluor 647 live cell microtubule stain (Biotium). Cells were treated as in FIG. 3 and stain with ViaFluor for 60 minutes at 37° C.

[2] = tested on: cancer cell lines of different lineages; test: Internalization of OV-8 in cell lines; format: cell-based; conditions: FIG. 2
Myc transcription = Myc transcription in HCT116 Myc-reporter cells; format: cell-based, human; conditions: for inhibition of Myc transcription: dose series
CHLA06 cells [3] = test: Confocal microscopy of 429-SMARCB1 in CHLA06 cells; format: cell-based; conditions: confocal fluorescent microscopy
HCT116 cells = test: Dose response / cell viability in HCT116 cells; format: cell-based, human; conditions: HCT116 Myc-reporter cells
Description: as §1, §2

CHLA06 cells [4] = test: Caspase assay (apoptosis) in CHLA06 cells; format: cell-based; conditions: SMARCB1 conjugate and tazemetostat treatments
Description: as §1
429-MMAE was also compared with 429-SM in various cell lines. 429-SM represents 429-Smarc-MMAE and consists of 429-linker-NLS-SMARCB1 mimic to which 1 or 2 MMAE molecules are conjugated through the cysteines. CHLA06 cells were plated at 10,000 cells/well in B27-5 overnight. Samples were added and incubated for 48 hours at 37° C. Caspase 3/7 reagent was added and plates were read after 30 minutes at room temperature. […] Induction of apoptosis is directly correlated with drug concentration (i.e., higher the concentration of drug, the higher the apoptotic effect). […] 429-SM was also effective in A431 and HCT116 cells (FIG. 42C-42D).

ATRT cell lines = test: Apoptosis in ATRT cell lines, combination with tazemetostat; format: cell-based
CHLA02 cells = test: Caspase activity / apoptosis in CHLA02 cells; format: cell-based; conditions: CHL02 cells; SMARCB1 Mimic (F) and tazemetostat treatments
Description: as §1

## COc1cc([C@@H]2c3cc4c(cc3[C@H](O)[C@H]3COC(=O)[C@@H]23)OCO4)cc(OC)c1OC [PPP, Picropodophyllin]
CHLA06 cells [1]; FIG. 38A
  effect on CHLA06 cells (dose response): active
  effectiveness compared to 429-MMAE in terms of IC50: less effective

## CC[C@H](C)[C@@H]([C@@H](CC(=O)N1CCC[C@H]1[C@H](OC)[C@@H](C)C(=O)N[C@H](C)[C@@H](O)c1ccccc1)OC)N(C)C(=O)[C@@H](NC(=O)[C@@H](NC)C(C)C)C(C)C [MMAE, monomethyl auristatin E, reference compound] (H-[NMeV]V[Dil][Dolaproine]-X1)
A431 cells; A431 cells, MMAE at 1:3 dilutions, FIG. 20A, read-out: IC50 value (four-parameter non-linear regression)
  IC50: 0.0712 nM
microtubules
  disruption of microtubules: disrupt microtubules

## Cc1[nH]c2ccccc2c1CCNCc1ccc(/C=C/C(=O)NO)cc1 [Panobinostat, reference compound]
A431 cells; Homo sapiens, A-431, A431 cells, FIG. 20B, FIG. 24A, read-out: IC50 value
  IC50: 108 nM
A431 cells; Homo sapiens, A-431, printed as A431 treated with Panobinostat, in the sentence on CHLA06 cells, FIG. 24B, read-out: IC50
  IC50: > 500 nM

## FSFGNSSLRKLPGVVRRRRCARGVWR [Skwx-OV-8]
[2]
  internalization into cancer cell lines: internalize

## Nc1ncnc2c1c(-c1cccc(OCc3ccccc3)c1)cn2C1CC(CN2CCCC2)C1 (centres unmarked) [NVP-ADW742]
CHLA06 cells [1]; FIG. 38A
  effect on CHLA06 cells (dose response): no effects

## C[C@]1(O)C[C@@H](c2nc(-c3ccc4ccc(-c5ccccc5)nc4c3)c3c(N)nccn32)C1 [Linsitinib]
CHLA06 cells [1]; FIG. 38A
  effect on CHLA06 cells (dose response): no effects

B1: 429-SMARCB1: 429 construct delivering SmarcB1-myc binding sequence to nucleus (peptide)
chain: DFYGCLLDLSLGVPSLGWRRRCITAWLPSSIPKKKRKVDGQKLRDAFTWNMNEKLMTPEMFSEILCDDLD
modifications: 429 conjugate
Myc transcription; 5 nM
  Myc transcription compared to the control: significantly affects Myc transcription
Myc transcription; 50 nM
  Myc transcription compared to the control: significantly affects Myc transcription
Myc transcription
  inhibition of Myc transcription: inhibits Myc transcription
CHLA06 cells [3]; CHLA06 cells
  internalization: internalized
CHLA06 cells [3]
  co-localization with histones: co-localizes with histones
CHLA06 cells [1]; 429-SMARCB1 and tazemetostat treatments
  cell viability: reduced cell viability
HCT116 cells
  HCT116 cell viability compared to a control: affects HCT116 cell viability
CHLA06 cells [4]
  caspase activity: increased caspase activity
ATRT cell lines
  apoptotic effect in combination with tazemetostat: synergistic apoptotic effect

B2: DFYGCLLDLSLGVPSLGWRRRCITAWLPSSIPKKKRKVDGQKLRDAFTWNMNEKLMTPEMFSEILCDDLD (peptide)
chain: DFYGCLLDLSLGVPSLGWRRRCITAWLPSSIPKKKRKVDGQKLRDAFTWNMNEKLMTPEMFSEILCDDLD
modifications: not fully specified
Myc transcription
  inhibition of Myc transcription: inhibited
CHLA02 cells
  caspase activity: significantly increased caspase activity
CHLA06 cells [1]; 50 ug
  CHLA06 cell viability compared to 429 control: significantly affected CHLA06 cell viability
HCT116 cells
  HCT116 cell viability compared to a control: inhibited
CHLA06 cells [4]
  caspase activity: significantly increased caspase activity
